The source of these data is paper PMC3942355, “Unraveling Regulation of the Small Heat Shock Proteins by the Heat Shock Factor HvHsfB2c in Barley: Its Implications in Drought Stress Response and Seed Development”.

The series addresses HvHsfB2c (Hordeum vulgare (barley) cv. Golden …, UniProt F4ZC69 1-362). As to the kind of experiment: EMSA; 100 ng poly(dI-dC); EMSA as described previously (ref 24), with 100 ng poly(dI-dC); buffer, salt, pH and temperature not given. The settings on record: protein: ivt; chain copies: 3; 5' overhang 4 nt (TCGA) on both strands, 40 bp duplex.

Sequence of HvHsfB2c (F4ZC69 entry or part of it): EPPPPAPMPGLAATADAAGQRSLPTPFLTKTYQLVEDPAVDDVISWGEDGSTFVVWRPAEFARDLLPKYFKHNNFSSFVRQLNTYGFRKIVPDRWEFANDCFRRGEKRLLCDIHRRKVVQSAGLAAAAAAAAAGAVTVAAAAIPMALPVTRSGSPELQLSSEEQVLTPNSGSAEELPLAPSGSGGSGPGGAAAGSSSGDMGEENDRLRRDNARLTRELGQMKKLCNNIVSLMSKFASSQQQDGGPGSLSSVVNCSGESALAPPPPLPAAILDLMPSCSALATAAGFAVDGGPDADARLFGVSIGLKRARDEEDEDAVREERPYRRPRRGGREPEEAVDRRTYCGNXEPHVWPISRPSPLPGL

B1: HSE-box fragment of HvsHsp17.5-CI promoter (HSE-1/HSE-2) (dsDNA)
DNA 1: TCGAACAACCCAAAATCCAAAAAATTCCACAACCCCAAAAAGGC
DNA 2: TCGAGCCTTTTTGGGGTTGTGGAATTTTTTGGATTTTGGGTTGT
Turning to B1, the binding result is “binds”.
